Columns and labels:
[1] = biological target: Syntaxin-1A (endogenous, INS-1 832/13 cells) (rat (endogenous in INS-1 832/13)) (UniProt P32851); assay: co-IP; IP with 2 μg Syn-3 or Syn-1A antibody from 1 mg INS-1 832/13 lysate; cells at basal 0.8 mM glucose or stimulated with 16.7 mM glucose plus 10 nM GLP-1 for 30 min; blots quantified as percent recovery of total lysate input
[2] = biological target: Syntaxin-3 (endogenous, INS-1 832/13 cells) (rat (endogenous in INS-1 832/13)) (UniProt Q08849); assay: as above
Chain of Syntaxin-3 (endogenous, INS-1 832/13 cells) (rat (endogenous in INS-1 832/13)) (Q08849 whole entry, the tested form may be a part): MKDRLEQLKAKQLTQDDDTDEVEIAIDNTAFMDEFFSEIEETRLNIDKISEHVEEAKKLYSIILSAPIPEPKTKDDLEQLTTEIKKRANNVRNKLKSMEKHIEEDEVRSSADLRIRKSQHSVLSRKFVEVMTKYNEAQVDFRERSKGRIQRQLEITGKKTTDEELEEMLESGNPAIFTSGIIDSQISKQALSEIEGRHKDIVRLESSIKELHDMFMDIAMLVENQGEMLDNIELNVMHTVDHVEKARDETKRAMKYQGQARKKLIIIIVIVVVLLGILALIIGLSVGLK

[3] = biological target: GST-Syn-3 (cytoplasmic domain a.a. 1–263) (UniProt Q08849); assay: pull-down; GST-Syn-1A (1-265) or GST-Syn-3 (1-263) on glutathione agarose beads incubated with lysate of HEK293 cells transfected with Cav1.3 or Cav2.3, 4°C, 2 h; washed with 20 mM HEPES pH 7.4, 150 mM KOAc, 1 mM EDTA, 1 mM MgCl2, 5% glycerol, 0.1% Triton X-100; blots quantified as percent recovery
[4] = biological target: GST-Syn-1A (cytoplasmic domain a.a. 1–265) (UniProt P32851); assay: as above
Chain of GST-Syn-1A (cytoplasmic domain a.a. 1–265) (P32851 1-265): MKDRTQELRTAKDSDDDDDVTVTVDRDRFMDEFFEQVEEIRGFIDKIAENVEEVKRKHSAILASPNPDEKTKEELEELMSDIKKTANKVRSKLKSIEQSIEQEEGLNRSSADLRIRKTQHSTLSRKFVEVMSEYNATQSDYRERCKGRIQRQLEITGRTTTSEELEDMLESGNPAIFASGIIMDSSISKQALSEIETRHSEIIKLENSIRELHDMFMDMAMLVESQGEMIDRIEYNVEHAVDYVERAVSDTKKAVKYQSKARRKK

[5] = biological target: Syn-1A expressed in HEK293 cells (UniProt P32851); assay: co-IP; HEK293 cells co-transfected with Cav1.3 or Cav2.3 and Syn-1A or Syn-3; IP with anti-Syn-1A or anti-Syn-3 antibody; blots quantified as percent recovery of total lysate input
[6] = biological target: Syn-3 expressed in HEK293 cells (UniProt Q08849); assay: as above
Chain of Syn-3 expressed in HEK293 cells (Q08849 whole entry): as the sequence (Q08849 whole entry, the tested form may be a part) above

Chain of Cav1.3 alpha1 pore-forming subunit (endogenous, INS-1 832/13 cells), P27732 1-2203 (natural protein) (P27732 whole entry): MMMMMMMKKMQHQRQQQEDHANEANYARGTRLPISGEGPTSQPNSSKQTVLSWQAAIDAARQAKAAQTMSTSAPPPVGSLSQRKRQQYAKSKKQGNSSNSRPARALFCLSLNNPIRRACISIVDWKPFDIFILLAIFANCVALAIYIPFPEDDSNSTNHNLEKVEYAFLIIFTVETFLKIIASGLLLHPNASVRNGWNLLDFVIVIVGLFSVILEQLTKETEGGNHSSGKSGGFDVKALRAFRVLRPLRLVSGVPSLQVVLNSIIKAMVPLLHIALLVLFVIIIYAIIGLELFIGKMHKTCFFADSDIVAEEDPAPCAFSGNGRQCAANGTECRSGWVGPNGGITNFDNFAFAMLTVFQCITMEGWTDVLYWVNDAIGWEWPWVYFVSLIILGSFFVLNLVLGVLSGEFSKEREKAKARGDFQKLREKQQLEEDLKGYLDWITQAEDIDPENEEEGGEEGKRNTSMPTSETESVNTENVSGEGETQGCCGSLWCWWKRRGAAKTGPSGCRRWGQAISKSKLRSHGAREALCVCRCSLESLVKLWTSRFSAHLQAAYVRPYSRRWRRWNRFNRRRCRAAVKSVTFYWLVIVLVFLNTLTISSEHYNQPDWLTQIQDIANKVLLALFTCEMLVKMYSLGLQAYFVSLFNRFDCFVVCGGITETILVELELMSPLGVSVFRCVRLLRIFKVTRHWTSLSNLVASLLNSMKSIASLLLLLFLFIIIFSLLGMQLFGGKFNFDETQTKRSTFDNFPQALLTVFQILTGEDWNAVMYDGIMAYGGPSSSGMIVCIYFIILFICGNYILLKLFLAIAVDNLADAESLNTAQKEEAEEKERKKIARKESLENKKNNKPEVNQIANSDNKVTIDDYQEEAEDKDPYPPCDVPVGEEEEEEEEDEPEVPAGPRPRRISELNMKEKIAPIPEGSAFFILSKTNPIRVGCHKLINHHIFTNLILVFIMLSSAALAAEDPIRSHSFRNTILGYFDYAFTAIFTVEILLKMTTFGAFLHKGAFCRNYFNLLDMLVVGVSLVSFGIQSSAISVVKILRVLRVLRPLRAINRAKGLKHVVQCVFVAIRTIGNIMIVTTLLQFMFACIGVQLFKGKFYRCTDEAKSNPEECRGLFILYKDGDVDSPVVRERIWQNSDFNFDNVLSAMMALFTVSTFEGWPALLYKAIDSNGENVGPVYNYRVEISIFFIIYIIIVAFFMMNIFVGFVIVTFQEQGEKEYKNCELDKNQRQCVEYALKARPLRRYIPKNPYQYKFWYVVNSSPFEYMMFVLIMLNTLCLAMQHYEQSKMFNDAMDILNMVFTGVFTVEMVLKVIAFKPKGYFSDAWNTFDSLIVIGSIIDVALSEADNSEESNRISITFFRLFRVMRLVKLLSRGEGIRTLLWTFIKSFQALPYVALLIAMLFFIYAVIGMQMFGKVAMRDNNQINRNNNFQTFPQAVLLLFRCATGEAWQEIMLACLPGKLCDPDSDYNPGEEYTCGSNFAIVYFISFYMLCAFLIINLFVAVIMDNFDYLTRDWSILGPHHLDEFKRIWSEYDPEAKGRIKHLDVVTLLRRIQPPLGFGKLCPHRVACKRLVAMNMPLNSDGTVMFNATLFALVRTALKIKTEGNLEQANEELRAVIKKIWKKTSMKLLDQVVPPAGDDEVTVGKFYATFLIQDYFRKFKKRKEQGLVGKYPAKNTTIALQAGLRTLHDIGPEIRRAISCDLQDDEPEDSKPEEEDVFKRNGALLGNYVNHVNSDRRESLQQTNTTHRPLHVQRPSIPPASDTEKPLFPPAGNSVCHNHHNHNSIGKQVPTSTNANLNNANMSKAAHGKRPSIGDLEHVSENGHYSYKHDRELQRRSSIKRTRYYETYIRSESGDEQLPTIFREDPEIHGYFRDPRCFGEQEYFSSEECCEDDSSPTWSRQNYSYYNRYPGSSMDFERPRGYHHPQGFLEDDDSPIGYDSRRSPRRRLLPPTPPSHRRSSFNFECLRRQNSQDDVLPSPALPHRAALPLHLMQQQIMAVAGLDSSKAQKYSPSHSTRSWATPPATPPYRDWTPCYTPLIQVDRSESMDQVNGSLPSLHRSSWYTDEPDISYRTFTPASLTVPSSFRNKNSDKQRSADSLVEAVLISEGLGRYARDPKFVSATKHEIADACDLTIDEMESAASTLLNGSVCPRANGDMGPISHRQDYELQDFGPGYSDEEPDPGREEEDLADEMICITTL
Chain of Cav1.3 alpha1 subunit expressed in HEK293 cells, P27732 1-2203 (natural protein) (P27732 whole entry): as above
Chain of Cav2.3 alpha1 subunit expressed in HEK293 cells, Q07652 1-2222 (natural protein) (Q07652 whole entry): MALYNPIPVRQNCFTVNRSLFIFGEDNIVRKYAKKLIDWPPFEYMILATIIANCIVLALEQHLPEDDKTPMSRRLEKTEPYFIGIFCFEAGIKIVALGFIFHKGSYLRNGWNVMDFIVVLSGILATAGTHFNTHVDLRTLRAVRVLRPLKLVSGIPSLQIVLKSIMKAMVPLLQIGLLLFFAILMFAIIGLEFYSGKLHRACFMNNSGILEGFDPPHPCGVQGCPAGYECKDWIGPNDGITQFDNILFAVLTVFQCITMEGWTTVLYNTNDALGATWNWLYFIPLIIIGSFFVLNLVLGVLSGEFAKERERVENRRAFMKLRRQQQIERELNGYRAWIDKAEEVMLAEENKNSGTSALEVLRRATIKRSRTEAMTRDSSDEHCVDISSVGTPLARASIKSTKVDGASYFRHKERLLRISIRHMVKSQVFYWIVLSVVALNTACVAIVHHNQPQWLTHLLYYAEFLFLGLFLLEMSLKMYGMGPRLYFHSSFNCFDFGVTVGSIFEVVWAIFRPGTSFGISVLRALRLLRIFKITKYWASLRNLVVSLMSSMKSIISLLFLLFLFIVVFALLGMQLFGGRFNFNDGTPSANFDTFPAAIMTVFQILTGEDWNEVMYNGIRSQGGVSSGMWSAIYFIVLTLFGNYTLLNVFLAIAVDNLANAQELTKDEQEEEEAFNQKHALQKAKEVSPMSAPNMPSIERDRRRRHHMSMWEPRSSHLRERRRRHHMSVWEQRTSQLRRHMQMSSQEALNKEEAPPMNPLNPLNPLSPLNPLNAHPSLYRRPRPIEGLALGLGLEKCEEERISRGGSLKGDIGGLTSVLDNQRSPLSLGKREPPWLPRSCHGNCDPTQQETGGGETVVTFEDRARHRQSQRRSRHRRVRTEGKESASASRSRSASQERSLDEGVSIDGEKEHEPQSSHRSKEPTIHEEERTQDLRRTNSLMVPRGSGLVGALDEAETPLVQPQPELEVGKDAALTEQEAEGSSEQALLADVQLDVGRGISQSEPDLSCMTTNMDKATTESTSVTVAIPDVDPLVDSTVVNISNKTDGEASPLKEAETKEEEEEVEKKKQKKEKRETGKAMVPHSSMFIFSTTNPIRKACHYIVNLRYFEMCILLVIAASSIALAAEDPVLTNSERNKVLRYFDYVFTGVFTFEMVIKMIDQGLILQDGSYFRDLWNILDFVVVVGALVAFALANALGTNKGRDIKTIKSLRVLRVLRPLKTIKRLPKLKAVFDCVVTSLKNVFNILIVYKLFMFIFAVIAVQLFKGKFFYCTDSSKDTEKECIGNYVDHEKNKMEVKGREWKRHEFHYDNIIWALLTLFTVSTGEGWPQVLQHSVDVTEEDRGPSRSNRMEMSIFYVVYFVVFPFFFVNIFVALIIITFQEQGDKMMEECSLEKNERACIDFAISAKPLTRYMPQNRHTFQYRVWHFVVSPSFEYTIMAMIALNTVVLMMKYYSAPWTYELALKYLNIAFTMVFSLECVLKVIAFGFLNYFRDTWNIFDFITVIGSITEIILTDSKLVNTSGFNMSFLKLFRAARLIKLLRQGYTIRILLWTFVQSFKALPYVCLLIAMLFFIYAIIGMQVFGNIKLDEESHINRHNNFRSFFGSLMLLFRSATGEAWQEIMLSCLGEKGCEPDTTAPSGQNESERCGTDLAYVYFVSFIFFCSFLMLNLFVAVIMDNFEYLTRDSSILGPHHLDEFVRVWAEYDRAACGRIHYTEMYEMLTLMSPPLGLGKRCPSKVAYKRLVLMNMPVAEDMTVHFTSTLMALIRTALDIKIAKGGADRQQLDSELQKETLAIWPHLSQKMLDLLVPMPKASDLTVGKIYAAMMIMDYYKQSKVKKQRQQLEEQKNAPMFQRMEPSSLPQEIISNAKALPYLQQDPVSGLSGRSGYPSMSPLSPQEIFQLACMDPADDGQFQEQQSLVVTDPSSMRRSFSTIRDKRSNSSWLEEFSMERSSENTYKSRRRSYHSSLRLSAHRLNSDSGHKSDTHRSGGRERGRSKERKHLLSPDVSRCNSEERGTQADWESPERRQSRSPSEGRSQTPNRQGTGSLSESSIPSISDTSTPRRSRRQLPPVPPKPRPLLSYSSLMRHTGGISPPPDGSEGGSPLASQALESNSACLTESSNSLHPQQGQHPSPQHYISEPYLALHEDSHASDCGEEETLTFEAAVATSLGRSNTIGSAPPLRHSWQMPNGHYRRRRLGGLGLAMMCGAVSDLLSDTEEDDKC
Chain of Cav2.3 alpha1 pore-forming subunit (endogenous, INS-1 832/13 cells), Q07652 1-2222 (natural protein) (Q07652 whole entry): as above

Substance | percent recovery of total lysate input, basal (0.8 mM glucose) [1] [%] | percent recovery of total lysate input, stimulated (16.7 mM glucose + 10 nM GLP-1) [1] [%] | percent recovery of total lysate input, basal (0.8 mM glucose) [2] [%] | percent recovery of total lysate input, stimulated (16.7 mM glucose + 10 nM GLP-1) [2] [%] | percent recovery of total lysate input [3] [%] | percent recovery of total lysate input [4] [%] | percent recovery of total lysate input [5] [%] | percent recovery of total lysate input [6] [%]
Cav1.3 alpha1 pore-forming subunit (endogenous, INS-1 832/13 cells), P27732 1-2203 (natural protein) | 1.9 | 15 | 1.9 to 2 | 2 |  |  |  | 
Cav1.3 alpha1 subunit expressed in HEK293 cells, P27732 1-2203 (natural protein) |  |  |  |  | 5.3 | 25.7 | 18.1 | 7.8
Cav2.3 alpha1 pore-forming subunit (endogenous, INS-1 832/13 cells), Q07652 1-2222 (natural protein) |  |  | 1.7 | 8.1 |  |  |  | 
Cav2.3 alpha1 subunit expressed in HEK293 cells, Q07652 1-2222 (natural protein) |  |  |  |  | 20.1 | 8.4 | 2.2 | 6.1
